This assay concerns the target GST-tagged PLD1-PX. Description: AFM force measurement; GST-Munc-18-1 on dendron-modified tip, GST-PLD1-PX on dendron-modified Si wafer.

In turn, GST-tagged Munc-18-1 displayed a binding force of 50 pN.

Source of the values: US20070128623A1.
